{"source": "paper PMC4682175", "about": "(2015)", "target": "T1, Neogenin (Mus musculus, UniProt P97798)", "T1 chain": "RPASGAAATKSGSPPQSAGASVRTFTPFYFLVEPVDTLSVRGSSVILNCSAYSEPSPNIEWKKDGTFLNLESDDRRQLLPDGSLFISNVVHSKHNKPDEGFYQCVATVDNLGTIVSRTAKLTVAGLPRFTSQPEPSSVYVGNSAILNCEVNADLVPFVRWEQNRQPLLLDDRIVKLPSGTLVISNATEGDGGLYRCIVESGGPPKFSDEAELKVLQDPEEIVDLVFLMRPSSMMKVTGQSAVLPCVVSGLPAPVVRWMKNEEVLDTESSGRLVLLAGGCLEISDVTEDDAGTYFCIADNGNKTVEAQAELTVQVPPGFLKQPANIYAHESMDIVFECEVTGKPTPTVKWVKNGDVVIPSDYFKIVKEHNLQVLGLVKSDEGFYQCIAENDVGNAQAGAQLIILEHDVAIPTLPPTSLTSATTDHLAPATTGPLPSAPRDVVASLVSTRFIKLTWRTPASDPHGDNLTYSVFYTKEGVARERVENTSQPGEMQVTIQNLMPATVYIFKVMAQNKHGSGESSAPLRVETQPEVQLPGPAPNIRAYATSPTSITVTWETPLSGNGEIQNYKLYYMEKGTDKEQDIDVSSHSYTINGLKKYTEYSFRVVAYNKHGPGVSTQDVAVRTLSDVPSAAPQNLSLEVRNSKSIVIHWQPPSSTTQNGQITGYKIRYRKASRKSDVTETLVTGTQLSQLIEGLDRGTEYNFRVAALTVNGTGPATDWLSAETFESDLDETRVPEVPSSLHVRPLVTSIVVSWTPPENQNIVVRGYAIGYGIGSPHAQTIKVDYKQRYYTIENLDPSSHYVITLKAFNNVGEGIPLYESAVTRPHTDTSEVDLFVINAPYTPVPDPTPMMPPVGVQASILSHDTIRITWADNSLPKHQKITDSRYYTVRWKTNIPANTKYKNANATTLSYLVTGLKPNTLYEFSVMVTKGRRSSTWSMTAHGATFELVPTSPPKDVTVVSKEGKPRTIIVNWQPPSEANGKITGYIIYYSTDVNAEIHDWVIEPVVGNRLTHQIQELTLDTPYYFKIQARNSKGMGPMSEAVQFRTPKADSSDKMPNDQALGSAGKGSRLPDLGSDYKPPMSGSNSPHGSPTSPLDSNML", "test": "saturation binding of draxin-AP to Neo1-transfected HEK293T cells, Scatchard analysis"}
{"binder": "Draxin (protein, draxin alkaline phosphatase fusion) GTLASGSSARNLPETHSHLPSSALWVSQASHHGRRGLGKKDRGPGRPSRAQEGAVVTATKQASQMTLGQPPAGLLQNKELLLGLTLPYPEKEARSPAWERVKKRGREHKRRRDRLRLHRGRAAIRGPSSLMKKVEPSEDRMLEGTMEESSTSLAPTMFFLTMTDGATPTTEESRILPVTSLRPQTQPRSDGEVMPTLDMALFDWTDYEDLKPEVWPSAKKKEKHWSHFTSDGNETSPAEGDPCDHHQDCLPGTCCDLREHLCTPHNRGLNNKCFDDCMCMEGLRCYAKFHRNRRVTRRKGRCVEPETANGDQGSFINI", "values": [{"measurement": "Kd", "value": 0.62, "unit": "nM"}]}
